The text below walks through data of PMC7979726 (Nature Communications, 2021).

For the assay, the target named is T1, Mcm3 (S. cerevisiae, UniProt P24279 1-971).
T1 construct: Mcm3, S. cerevisiae; native protein without extra amino acids after SUMO cleavage; source: Champion pET SUMO Protein Expression System (Invitrogen); purified individually; protocols in Supplementary Data; not shown: SUMO, N-terminal, cleaved
In words: SEC; individually purified subunits mixed and the complex (Mcm5/3/7, Mcm2/6/4 or MCM-Cdt1) isolated by gel filtration. The following applies: both partners purified.

T1 sequence (P24279 whole entry): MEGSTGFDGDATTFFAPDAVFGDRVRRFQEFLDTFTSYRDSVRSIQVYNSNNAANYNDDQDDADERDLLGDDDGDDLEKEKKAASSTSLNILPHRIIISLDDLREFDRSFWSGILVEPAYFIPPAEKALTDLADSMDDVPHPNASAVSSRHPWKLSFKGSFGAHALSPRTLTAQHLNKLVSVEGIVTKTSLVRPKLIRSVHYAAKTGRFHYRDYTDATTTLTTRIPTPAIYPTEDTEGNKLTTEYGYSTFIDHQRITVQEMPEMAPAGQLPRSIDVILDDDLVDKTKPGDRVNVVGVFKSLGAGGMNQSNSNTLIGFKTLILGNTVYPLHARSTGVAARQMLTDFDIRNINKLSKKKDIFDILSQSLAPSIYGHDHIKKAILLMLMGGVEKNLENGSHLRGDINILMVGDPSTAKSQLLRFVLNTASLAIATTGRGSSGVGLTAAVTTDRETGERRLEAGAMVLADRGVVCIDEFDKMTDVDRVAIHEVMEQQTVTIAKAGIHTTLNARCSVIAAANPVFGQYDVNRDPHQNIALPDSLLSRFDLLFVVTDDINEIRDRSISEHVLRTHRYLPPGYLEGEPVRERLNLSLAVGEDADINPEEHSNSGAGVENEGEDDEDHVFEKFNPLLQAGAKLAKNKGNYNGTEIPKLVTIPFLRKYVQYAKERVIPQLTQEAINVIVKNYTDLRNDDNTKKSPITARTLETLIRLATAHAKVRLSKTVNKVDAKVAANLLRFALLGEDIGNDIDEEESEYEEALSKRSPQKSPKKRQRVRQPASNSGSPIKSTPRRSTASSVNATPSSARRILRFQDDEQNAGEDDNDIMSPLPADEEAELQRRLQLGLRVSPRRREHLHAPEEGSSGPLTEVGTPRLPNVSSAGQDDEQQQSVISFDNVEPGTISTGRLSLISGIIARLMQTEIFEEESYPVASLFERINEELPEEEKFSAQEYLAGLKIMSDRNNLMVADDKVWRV

B1: Mcm7 (natural protein, S. cerevisiae, UniProt P38132 1-845, looked up)
chain: MSAALPSIQLPVDYNNLFNEITDFLVTFKQDTLSSDATRNENEDENLDAENIEQHLLEKGPKYMAMLQKVANRELNSVIIDLDDILQYQNEKFLQGTQADDLVSAIQQNANHFTELFCRAIDNNMPLPTKEIDYKDDVLDVILNQRRLRNERMLSDRTNEIRSENLMDTTMDPPSSMNDALREVVEDETELFPPNLTRRYFLYFKPLSQNCARRYRKKAISSKPLSVRQIKGDFLGQLITVRGIITRVSDVKPAVEVIAYTCDQCGYEVFQEVNSRTFTPLSECTSEECSQNQTKGQLFMSTRASKFSAFQECKIQELSQQVPVGHIPRSLNIHVNGTLVRSLSPGDIVDVTGIFLPAPYTGFKALKAGLLTETYLEAQFVRQHKKKFASFSLTSDVEERVMELITSGDVYNRLAKSIAPEIYGNLDVKKALLLLLVGGVDKRVGDGMKIRGDINVCLMGDPGVAKSQLLKAICKISPRGVYTTGKGSSGVGLTAAVMKDPVTDEMILEGGALVLADNGICCIDEFDKMDESDRTAIHEVMEQQTISISKAGINTTLNARTSILAAANPLYGRYNPRLSPLDNINLPAALLSRFDILFLMLDIPSRDDDEKLAEHVTYVHMHNKQPDLDFTPVEPSKMREYIAYAKTKRPVMSEAVNDYVVQAYIRLRQDSKREMDSKFSFGQATPRTLLGIIRLSQALAKLRLADMVDIDDVEEALRLVRVSKESLYQETNKSKEDESPTTKIFTIIKKMLQETGKNTLSYENIVKTVRLRGFTMLQLSNCIQEYSYLNVWHLINEGNTLKFVDDGTMDTDQEDSLVSTPKLAPQTTASANVSAQDSDIDLQDA
notes: Mcm7, S. cerevisiae; native protein without extra amino acids after SUMO cleavage; source: Champion pET SUMO Protein Expression System (Invitrogen); purified individually; protocols in Supplementary Data; not shown: SUMO, N-terminal, cleaved
With B1, the binding result is “binds”.
